Laboratory results taken from publication PMC8646600 (Advanced Science, 2021).

Legend:
[1] = biological target: SARS-CoV-2 RBD titrated over immobilised Fabs (construct not stated) (SARS-CoV-2 (ancestral, Wuhan-Hu-1 …, UniProt P0DTC2)); experiment: BLI; details: both partners purified
[2] = biological target: T1, SARS-CoV-2 spike RBD (S-RBD), hFc tag removed by thrombin digestion, biotinylated (SARS-CoV-2, UniProt P0DTC2); experiment: ELISA; details: both partners purified
[3] = biological target: T1, SARS-CoV-2 spike RBD (S-RBD), hFc tag …; experiment: BLI; details: both partners purified
[4] = biological target: T2, full-length SARS-CoV spike expressed on cells (SARS-CoV, strain , UniProt P59594); experiment: flow cytometry on cells; details: one partner purified
T2 construct: source: HEK293T, transiently transfected, on cells

B1: S-B8 Fab (Fab, V domains shown)
VH: QVQLVQSGGGLIQPGGSLRLSCAASGFTVSLSHMNWVRQAPGKGLEWVSITYGDGNSDYADSVKGRFTISRDNSKNTLYLQMNSLRAEDTAVYYCAREYYYGMDVWGQGTTVTVSS
VL: not shown
Kd [1]: 15.4 nM

B2: S-E6 Fab (Fab, V domains shown)
VH: QVTLRESGPGLVKPSETLSLTCAVSGGSLSSVNYYWSWIRQHPGKGLEWIGYIYYSGSTNYNPSLKSRVTMSLDTSKNQFSLKLSSVTAADTAVYYCATPGAIMGALHIWGQGTLVTVSS
VL: QAVLTQPSSASSTPGQRVIISCSGSSSNIGSNTVSWYQQVPGAAPKLLIYFDYRRPSGVPDRFSGTRSGTSASLGISGLQSEDEADYYCAAWDDSLSAWVFGRGTKLTVL
Kd [1]: 11.4 nM

B3: S-B8 full-length human IgG4e1(S228P) antibody (antibody, V domains shown)
VH: B1 VH
VL: not shown
notes: also called S-B8 IgG; source: HEK293F, secreted; clarified culture supernatant, and purified (Mabselect)
IC50 [2]: 12.9 nM | Kd [3]: 7.79 nM

B4: S-E6 full-length human IgG4e1(S228P) antibody (antibody, V domains shown)
VH: B2 VH
VL: B2 VL
notes: also called S-E6 IgG; source: HEK293F, secreted; clarified culture supernatant, and purified (Mabselect)
binding result [4]: no binding
